Numbered stars: 1 amine (or outer) side, 2 acyl side, 3 side chain; on linkers, the order of the positions; unused ones are H or OH. Square brackets hold non-standard residues; d marks the D form. Side chains are listed from the residue outwards. Ends that are not written are not given here. Peptide text beside a SMILES is read from it. * marks the point of attachment. C20 diacid = O=C(O)CCCCCCCCCCCCCCCCCCC(=O)*; C18 diacid = O=C(O)CCCCCCCCCCCCCCCCC(=O)*; γGlu = O=C(O)[C@H](CCC(=O)[*:2])N[*:1]; AEEA = NCCOCCOCC(=O)O; Aib = CC(C)(N)C(=O)O
T1: human GLP-2 receptor (Homo sapiens, UniProt O95838, D470N)
T1 sequence (O95838 1-553 D470N): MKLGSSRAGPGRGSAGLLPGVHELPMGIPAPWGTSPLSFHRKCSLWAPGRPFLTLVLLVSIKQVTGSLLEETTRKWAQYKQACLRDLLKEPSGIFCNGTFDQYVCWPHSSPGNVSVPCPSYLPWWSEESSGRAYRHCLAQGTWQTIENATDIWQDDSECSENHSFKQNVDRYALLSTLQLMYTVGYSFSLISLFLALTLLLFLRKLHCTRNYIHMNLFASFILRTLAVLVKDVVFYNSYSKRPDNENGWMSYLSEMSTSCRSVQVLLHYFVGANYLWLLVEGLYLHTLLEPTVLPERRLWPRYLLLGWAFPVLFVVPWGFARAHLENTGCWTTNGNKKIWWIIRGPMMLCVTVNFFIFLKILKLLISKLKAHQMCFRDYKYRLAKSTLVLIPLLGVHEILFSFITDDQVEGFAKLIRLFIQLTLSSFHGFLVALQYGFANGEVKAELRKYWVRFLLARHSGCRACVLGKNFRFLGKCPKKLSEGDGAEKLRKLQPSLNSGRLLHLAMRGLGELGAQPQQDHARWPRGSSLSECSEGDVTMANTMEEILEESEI

T2: human GLP-2 receptor (hGLP2-R) (human, UniProt O95838)
T2 sequence: T1 sequence (O95838 1-553 D470N)


How the values were obtained:
human GLP-1 receptor = target: T3, human GLP-1 receptor (Homo sapiens, UniProt P43220); test: GLP-1 receptor potency assay (cAMP AlphaScreen); assay type: cell-based; conditions: HEK293 cells expressing human GLP-1R, cAMP response
T3 construct: expressed in transfected cells
Source text: The cDNA encoding the human glucagon-like peptide 1 receptor (GLP-1R) (primary accession number P43220) was cloned from the cDNA BC112126(MGC:138331/IMAGE:8327594). The DNA encoding the GLP-1-R was amplified by PCR using primers encoding terminal restriction sites for subcloning. The 5′-end primers additionally encoded a near Kozak consensus sequence to ensure efficient translation. The fidelity of the DNA encoding the GLP-1-R was confirmed by DNA sequencing. The PCR products encoding the GLP-1-R were subcloned into a mammalian expression vector containing a neomycin (G418) resistance marker. The mammalian expression vectors encoding the GLP-1-R were transfected into HEK293 cells by a standard calcium phosphate transfection method. 48 hours post- transfection, cells were seeded for limited dilution cloning and selected with 1 mg/ml G418 in the culture medium. Following 3 weeks in G418 selection clones were picked and tested in a functional GLP-1 receptor potency assay as described below. One clone was selected for use in compound profiling.
GLP-1R and GLP-2 receptor potency assays.
The cAMP AlphaScreen® assay from Perkin Elmer was used to quantitate the cAMP response to activation of the GLP1 and GLP2 receptor, respectively. […]

human GLP-2 receptor = target: T1, human GLP-2 receptor; test: GLP-2 receptor potency assay (cAMP AlphaScreen); assay type: cell-based; conditions: HEK293 cells expressing human GLP-2R, cAMP response; N/A = no detectable activity
Source text: The hGLP2-R was purchased from MRC-geneservice, Babraham, Cambridge as an Image clone: 5363415 (11924-117). For subcloning into a mammalian expression vector, primers for subcloning were obtained from DNA-Technology, Risskov, Denmark. The 5′ and 3′ primers used for the PCR reaction include terminal restriction sites for cloning and the context of the 5′ primer is modified to a Kozak consensus without changing the sequence of the product encoded by the ORF. A standard PCR reaction was run using Image clone 5363415 (11924-117) as a template with the above mentioned primers and Polymerase Herculase II Fusion in a total vol. of 50 μl. The generated PCR product was purified using GFX PCR and Gel band purification kit, digested with restriction enzymes and cloned into the mammalian expression vector using Rapid DNA Ligation Kit. Ligation reaction was transformed to XL10 Gold Ultracompetent cells and colonies were picked for DNA production using Endofree Plasmid maxi kit. Subsequent sequence analysis was conducted by MWG Eurofins, Germany.
HEK293 cells were transfected using the Lipofectamine PLUS transfection method. The day before transfection, HEK293 cells were seeded in two T75 flasks at a density of 2×10^6 cells/T75 flask in cell culturing medium without antibiotics. […] Following 4 weeks in G418 selection, clones were picked and tested in a functional GLP-2 receptor potency assay as described below.
Data from test compounds eliciting an increase in the intracellular level of cAMP were normalized relative to the positive and negative control (vehicle) to calculate the EC50 and maximal response from the concentration response curve.

[1] = target: T2, human GLP-2 receptor (hGLP2-R)
[2] = target: human glucagon-like peptide 1 receptor (GLP-1R) (human) (UniProt P43220)
[3] = target: human GLP-2 receptor (hGLP2-R) (human) (UniProt O95838)

T3 sequence (P43220 24-463): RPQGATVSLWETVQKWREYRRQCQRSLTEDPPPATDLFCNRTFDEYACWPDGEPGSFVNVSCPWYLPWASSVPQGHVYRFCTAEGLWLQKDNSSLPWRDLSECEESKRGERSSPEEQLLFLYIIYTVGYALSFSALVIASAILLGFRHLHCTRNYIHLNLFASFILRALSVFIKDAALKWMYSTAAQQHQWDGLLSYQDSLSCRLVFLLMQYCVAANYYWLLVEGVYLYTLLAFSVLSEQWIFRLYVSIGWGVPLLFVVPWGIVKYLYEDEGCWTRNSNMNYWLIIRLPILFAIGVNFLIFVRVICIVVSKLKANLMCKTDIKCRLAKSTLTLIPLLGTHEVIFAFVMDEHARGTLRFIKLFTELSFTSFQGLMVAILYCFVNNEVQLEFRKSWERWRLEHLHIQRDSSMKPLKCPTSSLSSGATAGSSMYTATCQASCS

| Molecule | EC50 (human GLP-1 receptor) [pM] | EC50 (human GLP-2 receptor) [pM] | EC50 GLP-2 (nM), cAMP AlphaScreen [1] [nM] | EC50 GLP-1 (nM), cAMP AlphaScreen [2] [nM] | EC50 GLP-2 (nM), cAMP AlphaScreen [3] [nM] |
| --- | --- | --- | --- | --- | --- |
| CC[C@H](C)[C@H](NC(=O)[C@H](Cc1ccccc1)NC(=O)[C@H](CC(=O)O)NC(=O)[C@H](CCCCNC(=O)COCCOCCNC(=O)[C@H](CCCCN)NC(=O)[C@H](CCC(=O)O)NC(=O)[C@H](CCCCN)NC(=O)CC[C@H](NC(=O)CCCCCCCCCCCCCCCCCCC(=O)O)C(=O)O)NC(=O)[C@H](C)NC(=O)[C@H](C)NC(=O)[C@H](CCC(N)=O)NC(=O)[C@H](CCC(=O)O)NC(=O)[C@H](CC(=O)O)NC(=O)[C@H](CC(C)C)NC(=O)[C@@H](NC(=O)[C@@H](NC(=O)[C@H](C)NC(=O)[C@H](CC(C)C)NC(=O)[C@H](CCC(=O)O)NC(=O)[C@H](CO)NC(=O)[C@@H](NC(=O)[C@H](Cc1ccccc1)NC(=O)[C@H](CO)NC(=O)CNC(=O)[C@H](CCC(=O)O)NC(=O)C(C)(C)NC(=O)[C@@H](N)Cc1c[nH]cn1)[C@@H](C)O)[C@@H](C)O)[C@@H](C)CC)C(=O)N[C@@H](C)C(=O)N[C@@H](Cc1c[nH]c2ccccc12)C(=O)N[C@@H](CC(C)C)C(=O)N[C@H](C(=O)N[C@@H](CCC(=O)O)C(=O)N[C@@H](Cc1c[nH]cn1)C(=O)N[C@@H](CCCCN)C(=O)N[C@H](C(=O)N[C@H](C(=O)N[C@@H](CC(=O)O)C(=O)O)[C@@H](C)O)[C@@H](C)CC)[C@@H](C)CC [Compound 64] (H-H[Aib]EGSFTSELATILDEQAAK([AEEA-Lys-Glu-Lys-γGlu-C20 diacid])DFIAWLIEHKITD-OH) | 490 | 200 | – | – | – |
| CC[C@H](C)[C@H](NC(=O)[C@H](Cc1ccccc1)NC(=O)[C@H](CC(=O)O)NC(=O)[C@H](CCCNC(=N)N)NC(=O)[C@H](C)NC(=O)[C@H](C)NC(=O)[C@H](CCC(N)=O)NC(=O)[C@H](CCC(=O)O)NC(=O)[C@H](CC(=O)O)NC(=O)[C@H](CC(C)C)NC(=O)[C@@H](NC(=O)[C@@H](NC(=O)[C@H](C)NC(=O)[C@H](CCCCNC(=O)COCCOCCNC(=O)[C@H](CCCCN)NC(=O)[C@H](CCC(=O)O)NC(=O)[C@H](CCCCN)NC(=O)CC[C@H](NC(=O)CCCCCCCCCCCCCCCCCCC(=O)O)C(=O)O)NC(=O)[C@H](CCC(=O)O)NC(=O)[C@H](CO)NC(=O)[C@@H](NC(=O)[C@H](Cc1ccccc1)NC(=O)[C@H](CO)NC(=O)CNC(=O)[C@H](CCC(=O)O)NC(=O)C(C)(C)NC(=O)[C@@H](N)Cc1c[nH]cn1)[C@@H](C)O)[C@@H](C)O)[C@@H](C)CC)C(=O)N[C@@H](C)C(=O)N[C@@H](Cc1c[nH]c2ccccc12)C(=O)N[C@@H](CC(C)C)C(=O)N[C@H](C(=O)N[C@@H](CCC(=O)O)C(=O)N[C@@H](Cc1c[nH]cn1)C(=O)N[C@@H](CCCCN)C(=O)N[C@H](C(=O)N[C@H](C(=O)N[C@@H](CC(=O)O)C(=O)O)[C@@H](C)O)[C@@H](C)CC)[C@@H](C)CC [Compound 53] (H-H[Aib]EGSFTSEK([AEEA-Lys-Glu-Lys-γGlu-C20 diacid])ATILDEQAARDFIAWLIEHKITD-OH) | – | 240 | – | – | – |
| CC[C@H](C)[C@H](NC(=O)[C@H](Cc1ccccc1)NC(=O)[C@H](CC(=O)O)NC(=O)[C@H](CCCNC(=N)N)NC(=O)[C@H](C)NC(=O)[C@H](C)NC(=O)[C@H](CCCCNC(=O)COCCOCCNC(=O)COCCOCCNC(=O)[C@H](CCCCN)NC(=O)[C@H](CCC(=O)O)NC(=O)[C@H](CCCCN)NC(=O)CC[C@H](NC(=O)CCCCCCCCCCCCCCCCCCC(=O)O)C(=O)O)NC(=O)[C@H](C)NC(=O)[C@H](CC(=O)O)NC(=O)[C@H](CC(C)C)NC(=O)[C@@H](NC(=O)[C@@H](NC(=O)[C@H](C)NC(=O)[C@H](CC(C)C)NC(=O)[C@H](CCC(=O)O)NC(=O)[C@H](CO)NC(=O)[C@@H](NC(=O)[C@H](Cc1ccccc1)NC(=O)[C@H](CO)NC(=O)CNC(=O)[C@H](CCC(=O)O)NC(=O)C(C)(C)NC(=O)[C@@H](N)Cc1c[nH]cn1)[C@@H](C)O)[C@@H](C)O)[C@@H](C)CC)C(=O)N[C@@H](C)C(=O)N[C@@H](Cc1c[nH]c2ccccc12)C(=O)N[C@@H](CC(C)C)C(=O)N[C@H](C(=O)N[C@@H](CCC(=O)O)C(=O)N[C@@H](Cc1c[nH]cn1)C(=O)N[C@@H](CCCCN)C(=O)N[C@H](C(=O)N[C@H](C(=O)N[C@@H](CC(=O)O)C(=O)O)[C@@H](C)O)[C@@H](C)CC)[C@@H](C)CC [Compound 63] (H-H[Aib]EGSFTSELATILDAK([AEEA-AEEA-Lys-Glu-Lys-γGlu-C20 diacid])AARDFIAWLIEHKITD-OH) | 310 | 170 | – | – | – |

Continued, values first:

| EC50 (human GLP-1 receptor) [pM] | EC50 (human GLP-2 receptor) [pM] | EC50 GLP-2 (nM), cAMP AlphaScreen [1] [nM] | EC50 GLP-1 (nM), cAMP AlphaScreen [2] [nM] | EC50 GLP-2 (nM), cAMP AlphaScreen [3] [nM] | Molecule |
| --- | --- | --- | --- | --- | --- |
| – | – | 0.027 | 39 | – | Teduglutide (from UniProt P01275) (peptide) |
| – | – | – | 0.49 | 0.083 | H[Aib]DGSFSSELATILDK([γGlu-C18 diacid])QAARDFIAWLIQHKITD (ends and bridges not checked) [reference compound A] |
| – | – | – | 3.9 | 0.28 | H[Aib]EGSFSSELATILDK([γGlu-C18 diacid])QAARDFIAWLIQHKITD (ends and bridges not checked) [reference compound B] |

Reference: patent US20250073311A1, “DOSAGE REGIME” (ZEALAND PHARMA A/S, priority 2021, published 2025)
